{
  "source": "paper PMC11079029",
  "about": "“Intramolecular autoinhibition regulates the selectivity of PRPF40A tandem WW domains for proline-rich motifs” (Nature Communications, 2024)",
  "molecules": {"B1": {"name": "NKRF (protein, UniProt O15226 1-690, looked up)", "NF-kappa-B-repressing factor": "MEKILQMAEGIDIGEMPSYDLVLSKPSKGQKRHLSTCDGQNPPKKQAGSKFHARPRFEPVHFVASSSKDERQEDPYGPQTKEVNEQTHFASMPRDIYQDYTQDSFSIQDGNSQYCDSSGFILTKDQPVTANMYFDSGNPAPSTTSQQANSQSTPEPSPSQTFPESVVAEKQYFIEKLTATIWKNLSNPEMTSGSDKINYTYMLTRCIQACKTNPEYIYAPLKEIPPADIPKNKKLLTDGYACEVRCQNIYLTTGYAGSKNGSRDRATELAVKLLQKRIEVRVVRRKFKHTFGEDLVVCQIGMSSYEFPPALKPPEDLVVLGKDASGQPIFNASAKHWTNFVITENANDAIGILNNSASFNKMSIEYKYEMMPNRTWRCRVFLQDHCLAEGYGTKKTSKHAAADEALKILQKTQPTYPSVKSSQCHTGSSPRGSGKKKDIKDLVVYENSSNPVCTLNDTAQFNRMTVEYVYERMTGLRWKCKVILESEVIAEAVGVKKTVKYEAAGEAVKTLKKTQPTVINNLKKGAVEDVISRNEIQGRSAEEAYKQQIKEDNIGNQLLRKMGWTGGGLGKSGEGIREPISVKEQHKREGLGLDVERVNKIAKRDIEQIIRNYARSESHTDLTFSRELTNDERKQIHQIAQKYGLKSKSHGVGHDRYLVVGRKRRKEDLLDQLKQEGQVGHYELVMPQAN"}, "B2": {"name": "FAM120A (protein, UniProt Q9NZB2 1-1118, looked up)", "Constitutive coactivator of …": "MGVQGFQDYIEKHCPSAVVPVELQKLARGSLVGGGRQRPPQTPLRLLVDADNCLHRLYGGFYTDWVSGGQWNHMLGYLAALAKACFGGNIELFVFFNGALEKARLHEWVKRQGNERQTAQQIVSHVQNKGTPPPKVWFLPPVCMAHCIRLALIRFHVKVAQSIEDHHQEVIGFCRENGFHGLVAYDSDYALCNIPYYFSAHALKLSRNGKSLTTSQYLMHEVAKQLDLNPNRFPIFAALLGNHILPDEDLASFHWSLLGPEHPLASLKVRAHQLVLPPCDVVIKAVADYVRNIQDTSDLDAIAKDVFQHSQSRTDDKVIRFKRAIGYYSATSKPMSFHPPHYLAARPGPFGMPGMVPPHVPPQMLNIPQTSLQAKPVAPQVPSPGGAPGQGPYPYSLSEPAPLTLDTSGKNLTEQNSYSNIPHEGKHTPLYERSSPINPAQSGSPNHVDSAYFPGSSTSSSSDNDEGSGGATNHISGNKIGWEKTGSHSEPQARGDPGDQTKAEGSSTASSGSQLAEGKGSQMGTVQPIPCLLSMPTRNHMDITTPPLPPVAPEVLRVAEHRHKKGLMYPYIFHVLTKGEIKIAVSIEDEANKDLPPAALLYRPVRQYVYGVLFSLAESRKKTERLAFRKNRLPPEFSPVIIKEWAAYKGKSPQTPELVEALAFREWTCPNLKRLWLGKAVEDKNRRMRAFLACMRSDTPAMLNPANVPTHLMVLCCVLRYMVQWPGARILRRQELDAFLAQALSPKLYEPDQLQELKIENLDPRGIQLSALFMSGVDMALFANDACGQPIPWEHCCPWMYFDGKLFQSKLLKASREKTPLIDLCDGQADQAAKVEKMRQSVLEGLSFSRQSHTLPFPPPPALPFYPASAYPRHFGPVPPSQGRGRGFAGVCGFGGPYGETVATGPYRAFRVAAASGHCGAFSGSDSSRTSKSQGGVQPIPSQGGKLEIAGTVVGHWAGSRRGRGGRGPFPLQVVSVGGPARGRPRGVISTPVIRTFGRGGRYYGRGYKNQAAIQGRPPYAASAEEVAKELKSKSGESKSSAMSSDGSLAENGVMAEEKPAPQMNGSTGDARAPSHSESALNNDSKTCNTNPHLNALSTDSACRREAALEAAVLNKEE"}, "B3": {"name": "LARP7 (protein, UniProt Q4G0J3 1-582, looked up)", "La-related protein 7": "METESGNQEKVMEEESTEKKKEVEKKKRSRVKQVLADIAKQVDFWFGDANLHKDRFLREQIEKSRDGYVDISLLVSFNKMKKLTTDGKLIARALRSSAVVELDLEGTRIRRKKPLGERPKDEDERTVYVELLPKNVNHSWIERVFGKCGNVVYISIPHYKSTGDPKGFAFVEFETKEQAAKAIEFLNNPPEEAPRKPGIFPKTVKNKPIPALRVVEEKKKKKKKKGRMKKEDNIQAKEENMDTSNTSISKMKRSRPTSEGSDIESTEPQKQCSKKKKKRDRVEASSLPEVRTGKRKRSSSEDAESLAPRSKVKKIIQKDIIKEASEASKENRDIEISTEEEKDTGDLKDSSLLKTKRKHKKKHKERHKMGEEVIPLRVLSKSEWMDLKKEYLALQKASMASLKKTISQIKSESEMETDSGVPQNTGMKNEKTANREECRTQEKVNATGPQFVSGVIVKIISTEPLPGRKQVRDTLAAISEVLYVDLLEGDTECHARFKTPEDAQAVINAYTEINKKHCWKLEILSGDHEQRYWQKILVDRQAKLNQPREKKRGTEKLITKAEKIRLAKTQQASKHIRFSEYD"}},
  "data": [
    {"test_system": "GFP-tagged PRPF40A-Nter-MUT", "experiment": "SILAC GFP-immunoprecipitation with quantitative mass spectrometry, mutant construct", "format": "binding, human (Hela cells)", "conditions": "quantitative MS, Hela cells, protein by gene name", "procedure,_shortened": "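GFP-tagged PRPF40A N-terminal region (isoform 2, residues 1–221) with PPVP/PALPP motifs mutated to alanines, transiently expressed 24 h in SILAC-labelled HeLa cells alongside GFP control. Lysates (2.5 mg) pulled down on GFP-nanobody beads 1 h at 4 °C; pooled eluates trypsin-digested and quantified by LC-MS/MS on Orbitrap.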", "values": [
      {"molecule": "B1", "Immunoprecipitation enrichment MUT vs WT, log2 FC": 1.452},
      {"molecule": "B2", "Immunoprecipitation enrichment MUT vs WT, log2 FC": 1.247},
      {"molecule": "B3", "Immunoprecipitation enrichment MUT vs WT, log2 FC": 1.221}
    ]}
  ]
}
